Patent US20230303660A1

Molecular target: human 4-1BB (human) (UniProt Q07011)
Assay: cell-based or functional assay

human 4-1BB (human), sequence (Q07011 24-255): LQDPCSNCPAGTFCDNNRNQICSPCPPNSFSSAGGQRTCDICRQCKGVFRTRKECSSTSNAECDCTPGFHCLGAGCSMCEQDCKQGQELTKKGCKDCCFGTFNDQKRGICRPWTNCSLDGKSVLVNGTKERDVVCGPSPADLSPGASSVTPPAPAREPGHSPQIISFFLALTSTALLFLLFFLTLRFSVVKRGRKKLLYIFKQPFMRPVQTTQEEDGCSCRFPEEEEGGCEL

human 4-1BBL expressed on T cell stimulator cells (from UniProt P41273 1-254) (ligand)
NF-κB activation measured through eCFP expression (fold induction): 2.5 fold
